Target: T1, SCEEVCKPGGP (SEQ ID NO:47)
T1 chain: SCEEVCKPGGP

B1: Cathepsin K (protein)
chain: APDSVDYRKKGYVTPVKNQGQCGSCWAFSSVGALEGQLKKKTGKLLNLSPQNLVDCVSENDGCGGGYMTNAFQYVQKNRGIDSEDAYPYVGQEESCMYNPTGKAAKCRGYREIPEGNEKALKRAVARVGPVSVAIDASLTSFQFYSKGVYYDESCNSDNLNHAVLAVGYGIQKGNKHWIIKNSWGENWGNKGYILMARNKNNACGIANLASFPKM
cleavage of the peptide by the enzyme: This peptide did not inhibit cathepsin K but rather was cleaved by the enzyme

Reference: patent US20150133367
